What was measured:
Cdc13-L91R = molecular target: T1, Cdc13-L91R (Saccharomyces cerevisiae, UniProt P32797 1-924, L91R); assay: EMSA
T1 sequence: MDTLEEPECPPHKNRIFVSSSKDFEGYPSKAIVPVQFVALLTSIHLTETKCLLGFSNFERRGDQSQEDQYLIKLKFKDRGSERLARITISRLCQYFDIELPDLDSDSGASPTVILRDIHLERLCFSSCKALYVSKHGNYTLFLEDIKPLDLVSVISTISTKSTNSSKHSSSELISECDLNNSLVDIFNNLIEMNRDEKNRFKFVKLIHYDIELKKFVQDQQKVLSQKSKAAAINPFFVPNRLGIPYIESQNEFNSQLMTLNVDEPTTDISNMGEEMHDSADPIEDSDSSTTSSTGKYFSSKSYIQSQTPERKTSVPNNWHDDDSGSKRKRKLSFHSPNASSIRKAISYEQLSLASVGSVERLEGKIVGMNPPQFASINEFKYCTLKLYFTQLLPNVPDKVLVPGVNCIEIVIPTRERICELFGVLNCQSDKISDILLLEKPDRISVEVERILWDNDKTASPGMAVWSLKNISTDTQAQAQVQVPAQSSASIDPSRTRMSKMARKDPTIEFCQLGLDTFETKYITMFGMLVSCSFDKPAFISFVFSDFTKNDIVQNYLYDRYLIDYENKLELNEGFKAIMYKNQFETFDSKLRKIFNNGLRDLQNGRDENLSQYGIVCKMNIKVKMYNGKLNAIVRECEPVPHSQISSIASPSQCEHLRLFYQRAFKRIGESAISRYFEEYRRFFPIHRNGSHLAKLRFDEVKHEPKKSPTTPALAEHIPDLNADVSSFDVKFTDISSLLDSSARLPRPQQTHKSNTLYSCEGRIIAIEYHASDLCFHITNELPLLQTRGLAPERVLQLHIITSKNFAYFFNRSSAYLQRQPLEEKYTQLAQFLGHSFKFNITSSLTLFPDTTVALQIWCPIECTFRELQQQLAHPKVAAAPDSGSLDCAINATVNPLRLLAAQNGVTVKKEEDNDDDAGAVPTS

Cdc13-F539A = molecular target: T2, Cdc13-F539A (Saccharomyces cerevisiae, UniProt P32797 1-924, F539A); assay: EMSA
T2 sequence: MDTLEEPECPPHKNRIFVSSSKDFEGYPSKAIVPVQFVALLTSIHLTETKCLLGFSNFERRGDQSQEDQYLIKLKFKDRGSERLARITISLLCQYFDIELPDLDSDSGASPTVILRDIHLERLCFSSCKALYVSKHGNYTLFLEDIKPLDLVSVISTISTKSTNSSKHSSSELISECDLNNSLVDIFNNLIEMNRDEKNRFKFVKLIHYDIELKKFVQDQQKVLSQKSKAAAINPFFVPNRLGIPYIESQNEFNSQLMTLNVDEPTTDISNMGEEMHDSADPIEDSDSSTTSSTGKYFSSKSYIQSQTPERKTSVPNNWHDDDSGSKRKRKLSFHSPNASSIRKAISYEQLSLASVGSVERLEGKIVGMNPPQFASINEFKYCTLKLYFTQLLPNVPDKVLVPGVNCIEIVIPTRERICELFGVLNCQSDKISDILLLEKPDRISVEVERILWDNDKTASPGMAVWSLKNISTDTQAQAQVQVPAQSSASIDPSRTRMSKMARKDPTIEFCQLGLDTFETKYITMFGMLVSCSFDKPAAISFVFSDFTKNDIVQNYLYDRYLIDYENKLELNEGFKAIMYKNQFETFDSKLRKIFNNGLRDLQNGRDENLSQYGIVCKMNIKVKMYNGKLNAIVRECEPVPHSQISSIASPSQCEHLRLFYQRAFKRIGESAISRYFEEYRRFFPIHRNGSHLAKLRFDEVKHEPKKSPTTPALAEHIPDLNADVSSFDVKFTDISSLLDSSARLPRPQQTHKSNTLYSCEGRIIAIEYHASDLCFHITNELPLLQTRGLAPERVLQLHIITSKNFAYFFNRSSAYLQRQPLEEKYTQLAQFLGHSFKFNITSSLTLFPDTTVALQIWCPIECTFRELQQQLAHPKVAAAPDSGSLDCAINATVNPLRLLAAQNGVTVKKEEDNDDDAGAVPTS

B1: Tel11 (ssDNA)
DNA: GTGTGGGTGTG
Binder B1 has a Kd (Cdc13-L91R) of 0.005 ± 0.0006 nM and a Kd (Cdc13-F539A) of 0.14 ± 0.02 nM.
